Data reported in article PMC6353796, “Thermostable Branched-Chain Amino Acid Transaminases From the Archaea Geoglobus acetivorans and Archaeoglobus fulgidus: Biochemical and Structural Characterization” (Frontiers in Bioengineering and Biotechnology, 2019).
Values joined by “and” are separate entries in the source; they are usually repeats but may differ in a detail not shown here. Equal values may be shown once.

Target: the molecule itself
Test: SEC; AF0933 on Superdex 200 HiLoad (1.6 x 60 cm) in 50 mM Tris-HCl, pH 7.5, 500 mM NaCl, 0.05 mM PLP; native molecular mass by size exclusion

B1: AF0933, branched-chain amino acid transaminase (BCAT) from Archaeoglobus fulgidus (enzyme)
chain: MLYVYMDGEFVPENEAKVSIFDHGFLYGDGVFEGIRAYNGRVFRLKEHIDRLYDSAKAIDLEIPITKEEFMEIILETLRKNNLRDAYIRPIVTRGIGDLGLDPRKCQNPSIIVITKPWGKLYGDLYEKGLTAITVAVRRNSFDALPPNIKSLNYLNNILAKIEANAKGGDEAIFLDRNGYVSEGSGDNIFVVKNGAITTPPTINNLRGITREAVIEIINRLGIPFKETNIGLYDLYTADEVFVTGTAAEIAPIVVIDGRKIGDGKPGEITRKLMEEFSKLTESEGVPIYE
modifications: PLP covalently bound (Schiff base, internal aldimine) to Lys150
notes: Class IV branched-chain amino acid transaminase AF0933 of Archaeoglobus fulgidus; subunit 32.4 kDa, 290 amino acids; synthetic gene optimised for E. coli; Mainly homo-hexamer in solution with a small dimeric fraction; hexamer in the crystal; also called AF0933_holo; AF0933_GABC; source: E. coli Rosetta (DE3)-pLysS (pLATE51-AF0933), purified (heat step 70°C, Ni-NTA, Superdex 200)
- stoichiometry N: 6 and 2
